We go through four substances from paper PMC4256367.

The test has as its target hTau40 (Tau, 2N4R) 1-441 (UniProt P10636). Kind of test: fluorescence lifetime (TCSPC) over time.
Where [1] appears, read: reference: unlabelled P0-Tau (E. coli), sites S202,T205,T212,S214,T231,S235,S262,S356,S396,S404,Y310,S324,T153.

With “hTau40 (Tau, 2N4R) 1-441 (from UniProt P10636-8) P12-Tau incubated with alkaline phosphatase (P4-Tau)”, under “reference: P12-Tau untreated, sites S202,T205,T212,S214,T231,S235,S262,S356,S396,S404”, the “other: final average lifetime” value is given as “weaker; reference 0.6”. For the substance “hTau40 (Tau, 2N4R) 1-441 (from UniProt P10636-8) P20-Tau (Sf9 cells treated with okadaic acid)”, the “other: final average lifetime” value (reference: P12-Tau (Sf9, no okadaic acid)) was “stronger; reference 0.6”.

Consider “hTau40 (Tau, 2N4R) 1-441 (from UniProt P10636-8) unlabelled P12-Tau (Sf9)”, for which, under setting [1], the “other: final average lifetime” value is “stronger; reference 3.8”.

For the substance “hTau40 (Tau, 2N4R) 1-441 (from UniProt P10636-8) unlabelled P20-Tau (Sf9 + okadaic acid)”, the “other: final average lifetime” value under setting [1] was “stronger; reference 3.8”.
